Measurements taken from US20230159643A1 (H LUNDBECK A S, published 2023).
Blank lines part the entries; values can stand above or below the binder they belong to.

Assays:
[1] = biological target: T1, human wild type Sortilin on S18-HEK cells (human, UniProt Q99523 78-831); test: cell-based or functional assay
T1 sequence: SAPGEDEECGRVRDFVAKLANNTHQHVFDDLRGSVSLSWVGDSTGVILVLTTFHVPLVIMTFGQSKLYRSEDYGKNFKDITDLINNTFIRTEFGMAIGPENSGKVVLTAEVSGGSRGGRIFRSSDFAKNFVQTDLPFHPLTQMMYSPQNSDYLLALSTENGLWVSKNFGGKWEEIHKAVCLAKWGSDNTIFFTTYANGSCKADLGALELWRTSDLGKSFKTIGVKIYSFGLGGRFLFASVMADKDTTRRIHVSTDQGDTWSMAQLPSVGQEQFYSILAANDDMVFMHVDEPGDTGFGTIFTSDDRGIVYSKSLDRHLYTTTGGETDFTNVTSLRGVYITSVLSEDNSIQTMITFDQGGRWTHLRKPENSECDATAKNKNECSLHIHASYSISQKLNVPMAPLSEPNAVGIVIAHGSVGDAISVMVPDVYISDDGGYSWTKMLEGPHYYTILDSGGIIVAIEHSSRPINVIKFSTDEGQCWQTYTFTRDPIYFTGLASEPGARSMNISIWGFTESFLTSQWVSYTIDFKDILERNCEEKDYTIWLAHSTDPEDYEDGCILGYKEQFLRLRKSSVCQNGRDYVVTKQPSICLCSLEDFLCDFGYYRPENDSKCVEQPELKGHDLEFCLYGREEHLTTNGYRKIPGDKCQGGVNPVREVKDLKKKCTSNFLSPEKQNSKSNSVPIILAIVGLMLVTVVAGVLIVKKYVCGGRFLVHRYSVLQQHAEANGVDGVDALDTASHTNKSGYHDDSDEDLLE

[2] = biological target: T2, Sortilin SORTECDBAP_tetra (tetraodon); test: BLI Octet 384RED (Example 8), Sortilin construct in solution
T2 construct: Fully tetraodon Sortilin ECD with BAP tag; also called tetraodon Sortilin
T2 chain: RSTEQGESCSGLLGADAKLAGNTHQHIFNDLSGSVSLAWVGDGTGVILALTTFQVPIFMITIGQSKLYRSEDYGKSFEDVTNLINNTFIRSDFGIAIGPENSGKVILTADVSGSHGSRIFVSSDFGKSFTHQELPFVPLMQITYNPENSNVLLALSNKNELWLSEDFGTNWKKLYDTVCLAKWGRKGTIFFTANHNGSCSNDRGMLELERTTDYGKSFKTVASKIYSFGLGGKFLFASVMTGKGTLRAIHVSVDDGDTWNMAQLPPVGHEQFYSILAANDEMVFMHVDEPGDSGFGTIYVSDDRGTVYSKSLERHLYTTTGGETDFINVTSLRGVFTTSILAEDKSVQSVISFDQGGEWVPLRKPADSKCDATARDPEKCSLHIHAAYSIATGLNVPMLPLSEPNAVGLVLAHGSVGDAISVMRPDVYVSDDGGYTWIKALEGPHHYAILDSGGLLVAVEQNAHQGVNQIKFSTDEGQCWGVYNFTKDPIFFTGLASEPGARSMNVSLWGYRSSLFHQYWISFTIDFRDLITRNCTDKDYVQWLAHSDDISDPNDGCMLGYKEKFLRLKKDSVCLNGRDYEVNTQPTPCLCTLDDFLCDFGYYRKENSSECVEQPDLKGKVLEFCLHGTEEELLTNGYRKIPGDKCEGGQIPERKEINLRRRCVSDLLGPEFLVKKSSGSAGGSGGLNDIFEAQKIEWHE
Protocol: (§1) Binding kinetics of anti-Sortilin HuMab antibodies to Sortilin were determined using Octet 384RED (Fortebio, Menlo Park, USA). HuMab solutions of 2 μg/ml were made by dilution in sample diluent (ForteBio, art. No. 18-5028). Prot A sensors (ForteBio, art. no. 18-0004) were prewetted with kinetics buffer (1:10 sample diluent in PBS) for at least 600 seconds. Subsequently sensors were immobilized with HuMab solution for 600 seconds. A baseline response was obtained by dipping in kinetics buffer for 120 seconds. Association of SORTECD constructs was performed during a 1000 seconds incubation. This was followed by dissociation in kinetics buffer for 100 seconds. After dissociation, sensors were regenerated (10 mM Glycine pH 1.0) and neutralized (kinetics buffer) 3 times for 5 seconds. […] A molecular weight of 76.8 kDA was used for SORTECDHis. Data was fitted with ForteBio Analysis 6.4 software, using a global full fit.

[3] = biological target: T3, Sortilin SORTECDBAP_hB06-10 (human/tetraodon chimera); test: as above
T3 construct: Shuffle construct
T3 chain: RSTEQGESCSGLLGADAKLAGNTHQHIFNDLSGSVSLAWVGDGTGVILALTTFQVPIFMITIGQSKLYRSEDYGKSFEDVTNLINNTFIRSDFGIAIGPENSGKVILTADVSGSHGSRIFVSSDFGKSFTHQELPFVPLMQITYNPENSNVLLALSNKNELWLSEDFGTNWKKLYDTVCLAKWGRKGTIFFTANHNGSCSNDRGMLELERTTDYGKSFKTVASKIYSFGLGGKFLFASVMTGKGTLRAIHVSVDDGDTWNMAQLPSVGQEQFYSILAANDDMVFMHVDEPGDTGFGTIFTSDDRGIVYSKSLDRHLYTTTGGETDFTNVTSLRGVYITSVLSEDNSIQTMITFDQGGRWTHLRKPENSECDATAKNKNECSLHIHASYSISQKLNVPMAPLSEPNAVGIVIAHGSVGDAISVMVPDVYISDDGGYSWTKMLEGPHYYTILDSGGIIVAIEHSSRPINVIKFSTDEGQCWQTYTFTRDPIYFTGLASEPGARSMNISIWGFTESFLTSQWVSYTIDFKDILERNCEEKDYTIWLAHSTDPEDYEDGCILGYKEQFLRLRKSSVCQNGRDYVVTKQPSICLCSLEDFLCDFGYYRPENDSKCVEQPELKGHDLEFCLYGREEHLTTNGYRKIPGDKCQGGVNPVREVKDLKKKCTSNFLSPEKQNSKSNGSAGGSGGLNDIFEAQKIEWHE
Protocol: as §1

- extracellular PGRN in medium of Sortilin over-expressing HEK cells (ELISA), % of untreated control [1]: 114%
B1: 1320 (antibody, V domains shown)
VH: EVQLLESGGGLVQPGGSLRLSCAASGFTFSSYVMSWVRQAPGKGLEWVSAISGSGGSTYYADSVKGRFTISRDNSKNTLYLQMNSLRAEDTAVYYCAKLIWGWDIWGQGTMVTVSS
VL: EIVLTQSPATLSLSPGERATLSCRASQSVSSYLAWYQQRPGQAPRLLIYDASNRATGIPARFSGSGSGTDFTLSISSLEPEDFAVYYCQQRTNWSITFGQGTRLEIK
notes: also called IgG1-6003-1320; Antibody 1320

- extracellular PGRN in medium of Sortilin over-expressing HEK cells (ELISA), % of untreated control [1]: 177%
- binding result [2]: no binding (tested: 10 µg/ml construct)
- EC50 [3]: 0.72 ng/mL
B2: Antibody 5E1 (antibody, V domains shown)
VH: EVHLVESGGDLVNPGGSLKLSCEASGFIFSIYGMSWVRQTPDKRLEWVAMISSGGIYTQYPDSVKGRFTISRDNAKNTLYLQMSGLKSEDTGTYHCTRHDDSWFAYWGQGTLVTVSA
VL: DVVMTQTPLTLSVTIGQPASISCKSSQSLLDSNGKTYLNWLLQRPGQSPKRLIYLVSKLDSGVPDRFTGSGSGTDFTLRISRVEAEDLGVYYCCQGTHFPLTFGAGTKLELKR
notes: Mouse anti-human Sortilin monoclonal antibody from hybridoma (BALB/c), purified on protein G; Assigned to the D Region; also called 5E1F6; Ab 5E1

- extracellular PGRN in medium of Sortilin over-expressing HEK cells (ELISA), % of untreated control [1]: 282%
- binding result [2]: no binding (tested: 10 µg/ml construct)
- EC50 [3]: 9.6 ng/mL
B3: Antibody 1F2 (antibody, V domains shown)
VH: EVQLVESGGDLVKPGGSLKLSCAASGFTFSSYGMSWVRQTPDKRLEWVAIISSGGSYTHYPDSVKGRFTISRDNAKNTLYLQMSSLKSEDTAMYYCARLCGPLCSGYWGQGTSVTVSS
VL: QAVVTQESALTTSPGETVTLTCRSSTGAVTTSNYANWVQEKPDHLFTGLIGGTNNRAPGVPARFSGSLIGDKAALTITGAQTEDEAIYFCALWYSNHFWVFGGGTKLTVLG
notes: Mouse anti-human Sortilin monoclonal antibody from hybridoma (BALB/c), purified on protein G; Assigned to the D Region; also called 1F2F4; Ab 1F2
